According to PMC8962522 (2022):

Target: CD44v3 (Homo sapiens, UniProt P16070)
Assay: MST

CD44v3, sequence (P16070 21-649): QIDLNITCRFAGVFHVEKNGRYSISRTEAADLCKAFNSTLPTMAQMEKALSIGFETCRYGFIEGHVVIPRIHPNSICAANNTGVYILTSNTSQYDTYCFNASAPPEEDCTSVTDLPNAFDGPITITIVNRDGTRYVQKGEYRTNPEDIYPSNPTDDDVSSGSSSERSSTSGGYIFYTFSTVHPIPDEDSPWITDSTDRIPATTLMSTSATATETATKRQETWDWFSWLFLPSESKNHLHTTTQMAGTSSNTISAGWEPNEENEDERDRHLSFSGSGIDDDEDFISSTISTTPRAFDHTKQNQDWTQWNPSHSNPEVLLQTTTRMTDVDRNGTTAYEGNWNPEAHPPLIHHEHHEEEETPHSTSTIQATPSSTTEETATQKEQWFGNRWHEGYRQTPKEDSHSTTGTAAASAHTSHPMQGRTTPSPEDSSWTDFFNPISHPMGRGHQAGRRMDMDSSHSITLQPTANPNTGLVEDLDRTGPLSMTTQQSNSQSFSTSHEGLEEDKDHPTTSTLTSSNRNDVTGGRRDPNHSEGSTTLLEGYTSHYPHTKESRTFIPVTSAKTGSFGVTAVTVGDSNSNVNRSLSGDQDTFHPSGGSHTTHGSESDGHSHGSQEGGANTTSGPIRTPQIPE

B1: TrkA (protein)
chain: AAPCPDACCPHGSSGLRCTRDGALDSLHHLPGAENLTELYIENQQHLQHLELRDLRGLGELRNLTIVKSGLRFVAPDAFHFTPRLSRLNLSFNALESLSWKTVQGLSLQELVLSGNPLHCSCALRWLQRWEEEGLGGVPEQKLQCHGQGPLAHMPNASCGVPTLKVQVPNASVDVGDDVLLRCQVEGRGLEQAGWILTELEQSATVMKSGGLPSLGLTLANVTSDLNRKNVTCWAENDVGRAEVSVQVNVSFPASVQLHTAVEMHHWCIPFSVDGQPAPSLRWLFNGSVLNETSFIFTEFLEPAANETVRHGCLRLNQPTHVNNGNYTLLAANPFGQASASIMAAFMDNPFEFNPEDPIPVSFSPVDTNSTSGDPVEKKDETPFGVSVAVG
modifications: NGF
For B1, the Kd was 9.47 nM.
